Source: IntAct's records for PubMed 10629049

Molecular target: creb3_human CREB3 (UniProt O43889)
Chain of UniProt O43889 (O43889 whole entry): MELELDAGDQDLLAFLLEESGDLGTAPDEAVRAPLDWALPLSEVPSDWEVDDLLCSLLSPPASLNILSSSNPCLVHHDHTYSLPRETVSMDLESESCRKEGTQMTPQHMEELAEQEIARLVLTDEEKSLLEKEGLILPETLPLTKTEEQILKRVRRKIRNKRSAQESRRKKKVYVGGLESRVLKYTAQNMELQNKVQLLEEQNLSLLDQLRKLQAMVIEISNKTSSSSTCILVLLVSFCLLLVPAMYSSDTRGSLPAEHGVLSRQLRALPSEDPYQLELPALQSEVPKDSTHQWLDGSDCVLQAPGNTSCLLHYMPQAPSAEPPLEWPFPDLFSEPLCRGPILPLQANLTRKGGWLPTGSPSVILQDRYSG

Effect of a mutation on the interaction, decreasing interaction:
Host cell factor 1 (Homo sapiens), P51610 C82D
Host cell factor 1 (Homo sapiens), P51610 E289A;W290A;K291A
Host cell factor 1 (Homo sapiens), P51610 P30S
Host cell factor 1 (Homo sapiens), P51610 P79S
Host cell factor 1 (Homo sapiens), P51610 P134S
Host cell factor 1 (Homo sapiens), P51610 P197S
Host cell factor 1 (Homo sapiens), P51610 P319S
Host cell factor 1 (Homo sapiens), P51610 R228D
Host cell factor 1 (Homo sapiens), P51610 S338A

Molecular target: po2f1_human POU2F1 (UniProt P14859)
Chain of UniProt P14859 (P14859 whole entry): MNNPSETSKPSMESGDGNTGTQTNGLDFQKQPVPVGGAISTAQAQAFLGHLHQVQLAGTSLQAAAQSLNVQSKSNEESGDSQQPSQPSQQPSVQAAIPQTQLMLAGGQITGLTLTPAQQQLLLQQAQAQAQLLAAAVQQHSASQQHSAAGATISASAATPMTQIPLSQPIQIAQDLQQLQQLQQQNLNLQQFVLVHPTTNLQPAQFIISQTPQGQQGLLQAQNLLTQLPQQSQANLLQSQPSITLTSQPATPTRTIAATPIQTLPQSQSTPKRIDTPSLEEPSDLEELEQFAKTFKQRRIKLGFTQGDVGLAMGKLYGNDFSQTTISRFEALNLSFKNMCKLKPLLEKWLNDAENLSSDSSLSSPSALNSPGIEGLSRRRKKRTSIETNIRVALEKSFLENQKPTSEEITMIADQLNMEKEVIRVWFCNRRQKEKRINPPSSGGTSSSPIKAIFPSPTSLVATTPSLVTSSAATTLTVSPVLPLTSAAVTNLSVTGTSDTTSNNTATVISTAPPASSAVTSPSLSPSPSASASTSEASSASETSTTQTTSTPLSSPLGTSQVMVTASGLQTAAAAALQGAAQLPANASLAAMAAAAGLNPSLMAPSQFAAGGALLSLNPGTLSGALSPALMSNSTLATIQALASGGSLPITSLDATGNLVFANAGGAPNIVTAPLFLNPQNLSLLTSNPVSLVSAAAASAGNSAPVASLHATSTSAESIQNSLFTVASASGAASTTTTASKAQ

Effect of a mutation on the interaction, decreasing interaction:
Host cell factor 1 (Homo sapiens), P51610 E289A;W290A;K291A
Host cell factor 1 (Homo sapiens), P51610 P134S
Host cell factor 1 (Homo sapiens), P51610 R344A;K345A
